Assay results reported in article PMC5625722.

Target: Proliferating cell nuclear antigen (PCNA), wild type (UniProt P15873)
Assay: MST; fluorescently labeled PCNA (22 nM, RED-NHS) constant, Mus81 (1-319) fragment 1.3-5500 nM; T buffer with 0.05% Tween-20 and 150 mM KCl; 25 °C; Monolith NT.115; apparent Kd

Kd [µM]	Binder
0.253	N-terminal fragment of Mus81 (1-319) (domain or fragment) MELSSNLKDLYIEWLQELVDGLTPKQEQLKIAYEKAKRNLQNAEGSFYYPTDLKKVKGIGNTIIKRLDTKLRNYCKIHHISPVEAPSLTQTSSTRPPKRTTTALRSIVNSCENDKNEAPEEKGTKKRKTRKYIPKKRSGGYAILLSLLELNAIPRGVSKEQIIEVAGKYSDHCMTPNFSTKEFYGAWSSIAALKKHSLVLEEGRPKRYSLTEEGVELTKSLKTADGISFPKENEEPNEYSVTRNESSEFTANLTDLRGEYGKEEEPCDINNTSFMLDITFQDLSTPQRLQNNVFKNDRLNSQTNISSHKLEEVSDDQTV
20.5	Mus81 (1-319) E44Q mutant (domain or fragment) MELSSNLKDLYIEWLQELVDGLTPKQEQLKIAYEKAKRNLQNAQGSFYYPTDLKKVKGIGNTIIKRLDTKLRNYCKIHHISPVEAPSLTQTSSTRPPKRTTTALRSIVNSCENDKNEAPEEKGTKKRKTRKYIPKKRSGGYAILLSLLELNAIPRGVSKEQIIEVAGKYSDHCMTPNFSTKEFYGAWSSIAALKKHSLVLEEGRPKRYSLTEEGVELTKSLKTADGISFPKENEEPNEYSVTRNESSEFTANLTDLRGEYGKEEEPCDINNTSFMLDITFQDLSTPQRLQNNVFKNDRLNSQTNISSHKLEEVSDDQTV
